Target: Arc (Activity-regulated cytoskeleton-associated protein, Arg3.1) (UniProt Q9WV31)
Assay: dynamic light scattering, 20°C and 30°C
Conditions: reference: wild type Arc; sites T278

“Arc (Activity-regulated cytoskeleton-associated protein, Arg3.1) (from UniProt Q9WV31) T278D” was tested, and the “other: DLS large-species diameter (share) at 30°C” value was “stronger; reference 333.00± 68.4 (74%)”.

— paper PMC8390433
